Target: human integrin αIIbβ3 on cells (K562 cells stably expressing αIIbβ3; human platelets) (human) (UniProt P08514)
Assay: FACS; displacement of Alexa647-labeled soluble fibrinogen from activated αIIbβ3-K562 cells

IC50: 73.2 nM
Substance: eptifibatide (peptide)

— patent publication US20220356217A1
